The results in this text go back to patent US20250145723A1 (MINGHUI PHARMACEUTICAL HANGZHOU, published 2025).

Like-named read-outs stand apart in the source and are kept apart here.

Experiment [1] concerns the target human IGF-1R on BaF3 cells overexpressing human IGF-1R (human) (UniProt P08069). Put plainly: cell-based or functional assay.
The target in experiment [2] is T1, recombinant human IGF-1R-his (human, UniProt P08069 31-932).
T1 construct: Recombinant his-tagged protein; also called hIGF-1R-his; hIGF1R-his; not shown: his tag
T1 sequence (P08069 31-932 limits assumed): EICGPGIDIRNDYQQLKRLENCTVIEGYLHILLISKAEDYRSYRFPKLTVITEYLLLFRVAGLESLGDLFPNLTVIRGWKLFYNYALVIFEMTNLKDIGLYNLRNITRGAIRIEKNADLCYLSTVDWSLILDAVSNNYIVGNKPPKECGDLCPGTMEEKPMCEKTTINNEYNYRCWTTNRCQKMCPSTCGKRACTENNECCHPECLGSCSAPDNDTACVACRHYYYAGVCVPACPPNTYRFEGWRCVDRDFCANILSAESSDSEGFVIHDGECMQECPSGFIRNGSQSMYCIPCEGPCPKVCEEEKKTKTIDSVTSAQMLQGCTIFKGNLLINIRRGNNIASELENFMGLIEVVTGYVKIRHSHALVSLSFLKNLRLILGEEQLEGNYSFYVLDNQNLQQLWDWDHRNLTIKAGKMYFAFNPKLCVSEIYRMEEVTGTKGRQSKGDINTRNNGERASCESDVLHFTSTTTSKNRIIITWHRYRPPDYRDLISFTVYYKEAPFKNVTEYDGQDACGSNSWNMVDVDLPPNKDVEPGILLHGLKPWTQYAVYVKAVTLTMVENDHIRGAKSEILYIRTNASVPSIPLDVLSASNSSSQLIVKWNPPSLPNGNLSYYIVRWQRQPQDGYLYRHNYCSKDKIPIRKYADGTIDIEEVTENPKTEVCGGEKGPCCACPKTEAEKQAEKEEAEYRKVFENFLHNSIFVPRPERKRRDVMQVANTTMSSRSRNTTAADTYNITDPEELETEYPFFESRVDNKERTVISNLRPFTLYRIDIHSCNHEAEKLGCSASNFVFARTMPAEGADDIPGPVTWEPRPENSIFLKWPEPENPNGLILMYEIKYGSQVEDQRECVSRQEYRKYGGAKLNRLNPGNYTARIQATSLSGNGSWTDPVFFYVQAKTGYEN
Put plainly: competition ELISA, coated hIGF-1R-his, competitor IGF-1-Fc 1.25 µg/mL. As to the method: Recombinant human IGF-1R-his antigens (5 μg/mL) were added to a 96-well plate for coating overnight at 4° C. The plate was washed with PBS, and then was blocked with 1% casein at room temperature for 1 h. The VHH samples were diluted 2-fold serially with 0.1% BSA/PBS, with a starting concentration of 20 μg/mL. […] The plate was washed three times with 0.1% PBST, horseradish peroxidase-labeled anti-human Fc tag antibodies (anti-human IgG-HRP, Abcam ab6759, 1:5,000, containing 1% casein) were added and incubated at room temperature for 30 min, and the plate was washed three times with 0.1% PBST. A TMB substrate solution (Thermo, 34028) was added for color development, the OD₄₅₀ was read using a microplate reader, and a curve was fit and the EC₅₀ value was calculated using Graphpad Prism software.
In general terms: In an ELISA, binding on a coated surface is turned into a signal by an enzyme label.

Experiment [3] deals with T2, recombinant mouse IGF-1R-his (mouse, UniProt Q60751 31-933).
T2 construct: not shown: his tag
T2 sequence (Q60751 31-933 limits assumed): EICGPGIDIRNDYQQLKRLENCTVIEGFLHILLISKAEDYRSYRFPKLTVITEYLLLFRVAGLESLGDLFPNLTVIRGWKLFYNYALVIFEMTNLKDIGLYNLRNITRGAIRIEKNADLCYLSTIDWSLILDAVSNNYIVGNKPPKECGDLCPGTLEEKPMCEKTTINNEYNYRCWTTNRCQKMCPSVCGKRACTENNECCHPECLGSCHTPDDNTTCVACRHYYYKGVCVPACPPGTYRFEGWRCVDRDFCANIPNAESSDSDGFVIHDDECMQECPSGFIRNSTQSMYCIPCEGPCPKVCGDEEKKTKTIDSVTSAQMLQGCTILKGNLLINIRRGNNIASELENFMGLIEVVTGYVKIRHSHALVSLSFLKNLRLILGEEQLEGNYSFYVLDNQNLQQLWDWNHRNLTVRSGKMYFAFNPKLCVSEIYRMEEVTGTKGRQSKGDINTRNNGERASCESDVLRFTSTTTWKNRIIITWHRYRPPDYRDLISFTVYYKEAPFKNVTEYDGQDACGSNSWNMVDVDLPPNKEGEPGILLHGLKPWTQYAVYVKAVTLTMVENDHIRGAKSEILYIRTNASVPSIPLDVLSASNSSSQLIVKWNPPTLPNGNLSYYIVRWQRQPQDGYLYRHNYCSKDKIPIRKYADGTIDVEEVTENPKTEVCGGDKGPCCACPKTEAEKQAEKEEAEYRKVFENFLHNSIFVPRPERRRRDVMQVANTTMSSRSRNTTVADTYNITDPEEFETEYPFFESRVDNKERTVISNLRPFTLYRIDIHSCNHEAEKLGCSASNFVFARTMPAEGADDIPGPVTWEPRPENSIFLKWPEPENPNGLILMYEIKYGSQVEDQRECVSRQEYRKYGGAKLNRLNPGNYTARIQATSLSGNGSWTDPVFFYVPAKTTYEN
As to the kind of experiment: ELISA, coated antigen 5 µg/mL. As for the experimental part:
(§1) Recombinant human, monkey and mouse IGF-1R-his antigens and human insulin receptor proteins (5 μg/mL) were added to a 96-well plate for coating overnight at 4° C. The plate was washed with PBS, and then was blocked with 1% casein at room temperature for 1 h. The nanobody-Fc fusion proteins were diluted to 2 μg/mL with 0.1% BSA/PBS, added to the antigen-coated 96-well plate, and incubated at room temperature for 1 hour. The plate was washed three times with 0.1% PBST, horseradish peroxidase-labeled anti-human Fc tag antibodies (anti-human IgG-HRP, Abcam ab6759, 1:5,000, containing 1% casein) were added and incubated at room temperature for 30 min, and the plate was washed three times with 0.1% PBST. A TMB substrate solution (Thermo, 34028) was added for color development, and the OD₄₅₀ was read using a microplate reader.

The target in experiment [4] is T3, human insulin receptor protein (human, UniProt P06213-2 28-944, limits assumed).
T3 construct: also called human insulin receptor proteins
T3 sequence (P06213 other isoform, or with tags, fused parts or gaps limits assumed): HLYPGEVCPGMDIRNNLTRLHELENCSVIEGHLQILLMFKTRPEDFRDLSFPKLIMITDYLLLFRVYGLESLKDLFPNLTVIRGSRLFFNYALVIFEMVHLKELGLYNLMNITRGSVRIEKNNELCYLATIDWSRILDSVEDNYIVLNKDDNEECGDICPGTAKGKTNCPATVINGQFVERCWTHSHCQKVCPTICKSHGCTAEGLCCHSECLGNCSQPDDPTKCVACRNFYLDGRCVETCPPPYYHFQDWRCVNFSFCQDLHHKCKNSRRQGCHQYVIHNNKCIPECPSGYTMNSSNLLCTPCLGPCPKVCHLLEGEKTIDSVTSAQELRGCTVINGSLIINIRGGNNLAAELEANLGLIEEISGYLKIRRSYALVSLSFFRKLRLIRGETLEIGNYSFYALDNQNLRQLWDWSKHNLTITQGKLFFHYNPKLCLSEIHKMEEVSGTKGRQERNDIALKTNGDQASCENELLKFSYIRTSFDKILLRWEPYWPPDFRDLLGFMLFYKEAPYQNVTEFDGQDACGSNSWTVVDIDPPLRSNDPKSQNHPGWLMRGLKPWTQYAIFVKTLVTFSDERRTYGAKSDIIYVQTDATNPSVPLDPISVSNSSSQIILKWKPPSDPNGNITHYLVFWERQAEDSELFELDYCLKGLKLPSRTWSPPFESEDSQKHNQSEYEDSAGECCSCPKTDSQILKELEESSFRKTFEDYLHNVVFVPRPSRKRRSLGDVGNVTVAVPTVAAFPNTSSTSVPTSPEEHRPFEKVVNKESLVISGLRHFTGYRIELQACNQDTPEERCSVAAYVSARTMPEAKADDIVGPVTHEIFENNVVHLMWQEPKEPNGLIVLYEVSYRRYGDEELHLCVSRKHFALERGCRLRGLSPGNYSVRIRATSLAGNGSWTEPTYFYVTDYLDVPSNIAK
Put plainly: ELISA, coated antigen 5 µg/mL. As for the experimental part:
as §1

Experiment [5] addresses T1, recombinant human IGF-1R-his. As to the kind of experiment: competition ELISA, coated hIGF-1R-his, competitor biotinylated IGF-1. As for the experimental part:
Recombinant human IGF1R-his antigen (5 μg/mL) was added to a 96-well plate for coating overnight at 4° C. The plate was washed 4 times with 1×TBST, and then was blocked with 2% BSA at room temperature for 1.5 h. The plate was washed four times with 1×TBST, and 50 μL of nanobody-Fc fusion proteins of different concentrations (with a starting concentration of 10 μg/mL, 2-fold serially diluted) and 50 μL of biotinylated IGF-1 ([…]) were added to the antigen-coated 96-well plate and incubated at 37° C. for 1 h. The plate was washed 4 times with 1×TBST, horseradish peroxidase-labeled Streptavidin (Thermo, 21126) was added and incubated at 37° C. for 1 h, and the plate was washed 4 times with 1×TBST. TMB substrate solution was added at 200 μL per well for color development in the dark for 20 min, 50 μL of 1 M H₂SO₄ was added to terminate the reaction, and the OD₄₅₀ was read using a microplate reader. A curve was fit and the IC₅₀ value was calculated using Graphpad Prism software.

Experiment [6] has the same target. Put plainly: competition ELISA, coated hIGF-1R-his, competitor IGF-2 (N-Avi & N-Fc). As for the experimental part: (§2) Recombinant human IGF-1R-his antigens (5 μg/mL) were added to a 96-well plate for coating overnight at 4° C. The plate was washed 4 times with 1×TBST, and then was blocked with 2% BSA at 37° C. for 1.5 h. The plate was washed four times with 1×TBST. A volume of 50 μL of biotinylated IGF-1-Fc (2.5 μg/mL) or IGF-2 (N-Avi & N-Fc 4 μg/mL), and 50 μL of nanobody-Fc fusion proteins of different concentrations (with a starting concentration of 10 μg/mL, 2-fold serially diluted) were added to the 96-well plate and incubated at 37° C. for 1 h. The plate was washed 4 times with 1×TBST, horseradish peroxidase-labeled Streptavidin (Thermo, 21126) was added and incubated at 37° C. for 1 h, and the plate was washed 4 times with 1×TBST. TMB substrate solution was added at 200 μL/well for color development in the dark for 20 min, 50 μL of 1 M H₂SO₄ was added to terminate the reaction, and the OD₄₅₀ was read using a microplate reader. A curve was fit and the IC₅₀ value was calculated using Graphpad Prism software.

The target is the same in experiment [7]. Put plainly: ELISA, coated hIGF-1R-his. As to the method:
Recombinant human IGF-1R-his antigens (2 μg/mL) were added to a 96-well plate for coating overnight at 4° C. The plate was washed three times with PBST, and then was blocked with PBST containing 5% skimmed milk powder at room temperature for 2 h. The blocking solution was discarded, the plate was washed three times with PBST, and then 30 μL of nanobody-Fc fusion proteins of different concentrations were added and incubated at room temperature for 1 h. The plate was washed 3 times with PBST, horseradish peroxidase-labeled anti-human Fc antibodies (abcam, ab97225) were added at 30 μL/well and incubated at room temperature for 1 h, and the plate was washed 3 times with PBST. TMB substrate solution was added at 30 μL/well for color development in the dark for 5-30 min, 30 μL of 2 M H₂SO₄ was added to terminate the reaction, and the OD₄₅₀ was read using a microplate reader. A curve was fit and the EC₅₀ value was calculated using Graphpad Prism software.

The target is the same in experiment [8]. As to the kind of experiment: competition ELISA, coated hIGF-1R-his, competitor biotinylated IGF-1-Fc. As for the experimental part:
as §2

The target is the same in experiment [9]. Put plainly: SPR (BIAcore), hIGF-1R-his on CM5 chip, Test 1. As to the method:
The affinity of the nanobody fusion proteins to recombinant human IGF-1R was detected using a BIAcore instrument. […] The flow rate was set to 10 μL/min. The chip activation time of a mixture of EDC and NHS was the default value of 420 s. The recombinant human IGF-1R-his was coupled to 800 RU on a CM5 chip under the preset coupling mode, and unbound activated groups were blocked with ethanolamine. Two-fold serially diluted nanobody-Fc fusion proteins (five concentrations of each fusion protein were detected) were injected sequentially at a flow rate of 50 μL/min at 25° C., with an association time of 120 s and a dissociation time of 600 s. A curve was fit with a 1:1 Langmuir binding model using the BIAcore T200 analysis software to determine kinetic constants such as the association rate constant, the dissociation rate constant, and the association dissociation constant.

The target is the same in experiment [10]. As to the kind of experiment: ELISA, coated hIGF-1R-his. As to the method: The binding activity of the nanobody-Fc fusion proteins obtained after two rounds of mutant construction with the antigen proteins (recombinant human IGF-1R-His) was detected by an ELISA method: 2 μg/mL recombinant human IGF1R-His antigen proteins were added to a 96-well ELISA plate, at 30 μL/well, for coating overnight at 4° C. The plate was washed three times with PBST. PBS containing 5% skim milk powder was added for blocking at room temperature for 2 h. The plate was washed three times with PBST. The nanobody-Fc fusion proteins were serially diluted 3-fold, and the nanobody-Fc fusion proteins of different concentrations were added to each well at 30 μL/well and incubated at room temperature for 1 h. The plate was washed three times with PBST, and horseradish peroxidase-labeled anti-human Fc antibodies were added at 30 μL/well and incubated at room temperature for 50 min. The plate was washed three times with PBST. TMB substrate solution was added at 30 μL/well for color development in the dark for 1-5 min, 30 μL of 2 M hydrochloric acid was added to terminate the reaction, and the OD₄₅₀ was read using a microplate reader. Curve fitting was conducted and the EC₅₀ value was calculated using Graphpad Prism software.
The source holds these as a separate data set.

Chain of human IGF-1R on BaF3 cells overexpressing human IGF-1R (human) (P08069 31-1367): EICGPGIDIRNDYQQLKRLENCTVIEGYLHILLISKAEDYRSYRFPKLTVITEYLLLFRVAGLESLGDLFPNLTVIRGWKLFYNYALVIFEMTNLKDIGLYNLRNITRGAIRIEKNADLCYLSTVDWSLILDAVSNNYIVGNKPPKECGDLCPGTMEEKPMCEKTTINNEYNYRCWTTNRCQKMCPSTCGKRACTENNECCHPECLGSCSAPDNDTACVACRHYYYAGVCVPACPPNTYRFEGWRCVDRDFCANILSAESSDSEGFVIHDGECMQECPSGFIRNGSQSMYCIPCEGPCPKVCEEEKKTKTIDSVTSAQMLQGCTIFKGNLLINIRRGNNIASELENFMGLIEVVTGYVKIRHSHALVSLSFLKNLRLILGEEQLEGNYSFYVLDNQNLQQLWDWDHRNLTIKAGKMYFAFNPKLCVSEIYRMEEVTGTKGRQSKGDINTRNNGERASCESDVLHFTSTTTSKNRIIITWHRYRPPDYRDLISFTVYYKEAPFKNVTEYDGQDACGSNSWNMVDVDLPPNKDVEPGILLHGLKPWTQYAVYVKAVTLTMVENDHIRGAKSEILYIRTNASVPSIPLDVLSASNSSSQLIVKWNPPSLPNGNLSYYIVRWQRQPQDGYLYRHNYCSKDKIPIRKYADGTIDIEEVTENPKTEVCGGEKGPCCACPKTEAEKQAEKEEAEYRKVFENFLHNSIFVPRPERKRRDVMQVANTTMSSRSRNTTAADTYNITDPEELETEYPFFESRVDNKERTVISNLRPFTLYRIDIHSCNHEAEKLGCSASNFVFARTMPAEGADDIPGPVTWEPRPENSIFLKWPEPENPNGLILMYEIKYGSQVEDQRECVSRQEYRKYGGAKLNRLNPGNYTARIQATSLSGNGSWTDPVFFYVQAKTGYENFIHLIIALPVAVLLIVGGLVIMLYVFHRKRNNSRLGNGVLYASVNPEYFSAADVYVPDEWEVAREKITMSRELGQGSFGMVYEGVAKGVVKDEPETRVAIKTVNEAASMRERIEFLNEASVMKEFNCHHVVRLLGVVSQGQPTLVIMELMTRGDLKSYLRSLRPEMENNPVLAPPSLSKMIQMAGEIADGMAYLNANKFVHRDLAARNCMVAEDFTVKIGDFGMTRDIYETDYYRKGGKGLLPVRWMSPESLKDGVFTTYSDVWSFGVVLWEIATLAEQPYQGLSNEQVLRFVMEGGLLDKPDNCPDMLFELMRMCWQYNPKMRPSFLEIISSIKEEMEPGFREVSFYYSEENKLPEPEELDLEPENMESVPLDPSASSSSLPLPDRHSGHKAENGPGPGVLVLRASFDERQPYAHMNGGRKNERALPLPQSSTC

On to Teprotumumab (antibody), for which the IC50, inhibition of IGF-1-induced proliferation of BaF3 cells overexpressing human IGF-1R in [1] worked out at 0.121 µg/mL.

B1: nanobody 5115 (VHH) (VHH)
VHH: EVQLVESGGGLVQAGGSLRLSCAVSGRTFSSFVMGWFRQAPGKEREFVAAISGSGSRANYADSVKGRFTVSRDNANNTVYLQMNSLKPDDTALYYCAANPRRATPDYTQYAYWGQGTQVTVSS
As a reminder, the IC50 is the concentration needed to halve the response being measured. As for B1, the IC50 in experiment [2] turned out to be 0.24 µg/mL.

B2: 5115-Fc fusion protein (Fc fusion)
VHH: EVQLVESGGGLVQAGGSLRLSCAVSGRTFSSFVMGWFRQAPGKEREFVAAISGSGSRANYADSVKGRFTVSRDNANNTVYLQMNSLKPDDTALYYCAANPRRATPDYTQYAYWGQGTQVTVSS
notes: C-terminus of the VHH linked to the N-terminus of human Fc; not shown: The human Fc segment; Any hinge or linker is also unstated
Take B2: the binding result in experiment [3] and in experiment [4] was “no binding (tested: 2 µg/mL)” throughout. Further, the IC50 in experiment [5] is 0.435 µg/mL.

B3: nanobody 5666 (VHH) (VHH)
VHH: EVQLVESGGGLVQAGGSLRLSCAVSGRTFSSYVMGWFRQAPGKERELVAAISGSGSRSNYADSVKGRFTVSRDNANNTVYLQMSSLRPDDTGLYYCAANPRRATTDYTQYAYWGQGTQVTVSS
Turning to B3, in experiment [2], the IC50 is 0.7 µg/mL.

B4: 5115-H0-Fc (Fc fusion)
chain: EVQLVESGGGLVQPGGSLRLSCAASGRTFSSFVMSWFRQAPGKEREFVSAISGSGSRAYYADSVKGRFTISRDNSKNTLYLQMNSLRAEDTAVYYCAANPRRATPDYTQYAYWGQGTQVTVSS
notes: Humanized VHH-Fc; Fc not specified; not shown: Fc
In general, EC50 refers to the concentration needed to bring the measured effect to its halfway point. B4: the IC50 in experiment [6] worked out at 0.177 µg/mL; in experiment [8] it was 0.236 µg/mL. Also, in [7], the EC50 was 0.0327 µg/mL. The binding result in experiment [3] and in experiment [4] was “no binding (tested: 2 µg/mL)” each time.

B5: 5115-H4-M34-Fc (Fc fusion)
chain: EVQLVESGGGLVQPGGSLRLSCAASGRTFSSFVMAWFRQAPGKGLEFVSAISGSGSRARYADSVKGRFTISRDNSKNTLYLQMNSLRAEDTAVYYCAANPRRATPDLTQYAYWGQGTLVTVSS
notes: VHH-Fc; Fc not specified; not shown: Fc
The Kd is a measure of binding affinity in units of concentration. What is called koff is the rate constant with which the complex falls apart. By kon is commonly meant the rate constant with which the complex forms. With B5, in experiment [9], the Kd turned out to be 0.0862 nM, the koff was found to be 0.000274 s⁻¹ and the kon came to 3.18e+06 M⁻¹ s⁻¹. For the same molecule, the IC50 in [6] worked out at 0.237 µg/mL. Moreover, in [1], the IC50, inhibition of IGF-1-induced proliferation of BaF3 cells overexpressing human IGF-1R worked out at 0.00816 µg/mL. In experiment [1] (record 2), this molecule yielded an IC50, inhibition of IGF-1-induced proliferation of BaF3 cells overexpressing human IGF-1R of 0.00851 µg/mL. Besides, the EC50 in experiment [10] stood at 0.052 nM. In addition, in [8], the IC50 was determined as 0.269 µg/mL.

B6: 5115-H1-Fc (Fc fusion)
chain: EVQLVESGGGLVQPGGSLRLSCAASGRTFSSFVMSWFRQAPGKEREFVSAISGSGSRAYYADSVKGRFTISRDNSKNTLYLQMNSLRAEDTAVYYCAANPRRATPDYTQYAYWGQGTLVTVSS
notes: as for B4
Take B6: in experiment [9], the Kd was 31.7 nM, the koff amounted to 0.00211 s⁻¹ and the kon was determined as 66800 M⁻¹ s⁻¹. Further, the EC50 in experiment [7] was found to be 0.0369 µg/mL.

B7: 5115-H4-Fc (Fc fusion)
chain: EVQLVESGGGLVQPGGSLRLSCAASGRTFSSFVMSWFRQAPGKGLEFVSAISGSGSRAYYADSVKGRFTISRDNSKNTLYLQMNSLRAEDTAVYYCAANPRRATPDYTQYAYWGQGTLVTVSS
notes: as for B4
Turning to B7, the IC50 in [6] worked out at 0.152 µg/mL; in [8], 0.227 µg/mL. The EC50 in [7] is 0.0828 µg/mL.

B8: 5115-H6-Fc (Fc fusion)
chain: EVQLVESGGGLVQPGGSLRLSCAASGRTFSSFVMMWFRQAPGKEREFVSAISGSGSRAYYADSVKGRFTISRDNSKNTLYLQMNSLRAEDTAVYYCAANPRRATPDYTQYAYWGQGTLVTVSS
notes: as for B4
Take B8: the EC50 in [7] was determined as 0.0929 µg/mL.

B9: 5115-H3-Fc (Fc fusion)
chain: EVQLVESGGGLVQPGGSLRLSCAASGRTFSSFVMSWFRQAPGKELEFVSAISGSGSRAYYADSVKGRFTISRDNSKNTLYLQMNSLRAEDTAVYYCAANPRRATPDYTQYAYWGQGTLVTVSS
notes: as for B4
On to B9, for which, in [7], the EC50 worked out at 0.0925 µg/mL.

B10: 5115-H2-Fc (Fc fusion)
chain: EVQLVESGGGLVQPGGSLRLSCAASGRTFSSFVMSWFRQAPGKGREFVSAISGSGSRAYYADSVKGRFTISRDNSKNTLYLQMNSLRAEDTAVYYCAANPRRATPDYTQYAYWGQGTLVTVSS
notes: as for B4
B10: in [7], the EC50 was 0.0652 µg/mL.
